Experiments:
[1] = molecular target: RhlR-ATTO488 (Pseudomonas aeruginosa) (UniProt P54292); test: MST; PqsE diluted 1:1 from 10 µM, RhlR-ATTO488 at 20 nM; 50 mM Tris pH 8.0, 300 mM NaCl, 5% glycerol, 50 µM mBTL, 0.05% Tween; 25 °C
[2] = molecular target: PqsE (purified, affinity tag removed) (Pseudomonas aeruginosa) (UniProt P20581); test: SEC-MALS; Superdex 200 Increase column in SEC buffer, 40-150 µg of protein applied

Substance | Kd [1] | stoichiometry N (RhlR per PqsE (2:2 complex)) [2]
PqsE (purified, affinity tag removed) (from UniProt P20581) (enzyme) | 146 nM | –
RhlR (untagged, co-expressed with His6-PqsE) (from UniProt P54292) (natural protein) | – | 1

From article PMC9715718
